Reference: article PMC8142631

Experiments:
[1] = molecular target: Soluble wild-type EPCR (endothelial protein C receptor) (UniProt Q9UNN8)
[2] = molecular target: endogenous EPCR expressed on EA.hy926 cells (human (endogenous in EA.hy926)) (UniProt Q9UNN8); experiment: binding to cells, read-out not stated
[3] = molecular target: endogenous EPCR expressed on EA.hy926 cells (human (endogenous in EA.hy926)) (UniProt Q9UNN8); experiment: on-cell western
[4] = molecular target: E86A-sEPCR (soluble EPCR variant) (UniProt Q9UNN8); experiment: ELISA
[5] = molecular target: Soluble wild-type EPCR (endothelial protein C receptor) (UniProt Q9UNN8); experiment: ELISA

Question: “recombinant CIDRα1.1 domain derived from FCR3 IT4VAR20 PfEMP1 (domain or fragment)” was tested. Which CIDRα1.1 concentration at complete inhibition of APC binding to sEPCR [1] did it give?
Answer: 50 nM

Question: What about the IC50 [1] of the same substance?
Answer: 12.5 nM

Question: What about the CIDRα1.1 concentration at complete inhibition of APC binding to endothelial EPCR [2] of the same substance?
Answer: 100 nM

Question: What about the IC50 [2] of the same substance?
Answer: 33 nM

Question: What about the Kd [3] of the same substance?
Answer: 8 nM

Question: And the Kd [4]?
Answer: 4.4 nM

Question: What about the Kd [5] of the same substance?
Answer: 4.3 nM
